Results published in article doi:10.1101/2024.09.25.614941.
Read-outs that look alike come from different tables or passages of the source.

Tests used:
PfSir2A = target: T1, PfSir2A (UniProt Q8IE47); experiment: EMSA
T1 sequence: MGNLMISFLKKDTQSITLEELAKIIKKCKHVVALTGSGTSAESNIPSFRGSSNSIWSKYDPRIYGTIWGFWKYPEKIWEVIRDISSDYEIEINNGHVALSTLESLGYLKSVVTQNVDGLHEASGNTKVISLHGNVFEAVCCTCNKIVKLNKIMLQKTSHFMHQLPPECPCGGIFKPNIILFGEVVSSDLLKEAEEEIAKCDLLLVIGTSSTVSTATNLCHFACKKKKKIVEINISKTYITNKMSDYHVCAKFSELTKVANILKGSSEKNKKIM

[1] = target: recombinant human 601-positioned nucleosome with histone H3 acetylated at lysine 9 (H3K9Ac dNuc) (human) (UniProt P68431); experiment: native gel or EMSA

Q: Which Kd (PfSir2A) does the source give for “601 nucleosome assembly sequence DNA, 147 bp” here?
A: 4000 nM

Q: How did the Kd (PfSir2A; histone H3 K9 acetylated, no DNA modification stated) turn out when “H3K9Ac dNuc (human 601-positioned nucleosome)” was run?
A: 1400 nM

B1: Plasmodium falciparum silent information regulator 2A (PfSir2A) (enzyme)
chain: MGNLMISFLKKDTQSITLEELAKIIKKCKHVVALTGSGTSAESNIPSFRGSSNSIWSKYDPRIYGTIWGFWKYPEKIWEVIRDISSDYEIEINNGHVALSTLESLGYLKSVVTQNVDGLHEASGNTKVISLHGNVFEAVCCTCNKIVKLNKIMLQKTSHFMHQLPPECPCGGIFKPNIILFGEVVSSDLLKEAEEEIAKCDLLLVIGTSSTVSTATNLCHFACKKKKKIVEINISKTYITNKMSDYHVCAKFSELTKVANILKGSSEKNKKIM
Q: Which Kd [1] does the source give for B1 here?
A: 1400 nM
